The values below come from patent US20250206821A1 (Hoffmann-La Roche, published 2025).

B1: anti-dig/anti-fluos bsAb (dig 2/3-IgG with E357K MHCFcRP x fluos 2/3-IgG with K370E MHCFcRP) (bispecific antibody)
heavy 1: QVQLVESGGGLVKPGGSLRLSCAASGFTFSDYAMSWIRQAPGKGLEWVSSINIGATYIYYADSVKGRFTISRDNAKNSLYLQMNSLRAEDTAVYYCARPGSPYEYDKAYYSMAYWGQGTTVTVSSASTKGPSVFPLAPSSKSTSGGTAALGCLVKDYFPEPVTVSWNSGALTSGVHTFPAVLQSSGLYSLSSVVTVPSSSLGTQTYICNVNHKPSNTKVDKKVEPKSC
light 1: not shown
heavy 2: not shown
light 2: DIVMTQTPLSLSVTPGQPASISCKSSQSLVHSNGNTYLRWYLQKPGQSPKVLIYKVSNRVSGVPDRFSGSGSGTDFTLKISRVEAEDVGVYYCSQSTHVPWTFGQGTKLEIKRTVAAPSVFIFPPSDEQLKSGTASVVCLLNNFYPREAKVQWKVDNALQSGNSQESVTEQDSKDSTYSLSSTLTLSKADYEKHKVYACEVTHQGLSSPVTKSFNRGEC
notes: Product of the 2/3-IgG exchange reaction, assayed as reaction mix; also called dig fluos; not shown: residue limits no
B2: anti-fluos/anti-dig bsAb (fluos 2/3-IgG with E357K MHCFcRP x dig 2/3-IgG with K370E MHCFcRP) (bispecific antibody)
heavy 1: not shown
light 1: B1 light 2
heavy 2: B1 heavy 1
light 2: not shown
notes: Product of the 2/3-IgG exchange reaction, assayed as reaction mix; also called fluos dig; not shown: residue limits no
B3: anti-bio/anti-fluos bsAb (bio 2/3-IgG with E357K MHCFcRP x fluos 2/3-IgG with K370E MHCFcRP) (bispecific antibody)
heavy 1: not shown
light 1: DIQMTQSPSSLSASVGDRVTITCRASGNIHNYLSWYQQKPGKVPKLLIYSAKTLADGVPSRFSGSGSGTDFTLTISSLQPEDVATYYCQHFWSSIYTFGQGTKLEIKRTVAAPSVFIFPPSDEQLKSGTASVVCLLNNFYPREAKVQWKVDNALQSGNSQESVTEQDSKDSTYSLSSTLTLSKADYEKHKVYACEVTHQGLSSPVTKSFNRGEC
heavy 2: not shown
light 2: B1 light 2
notes: Product of the 2/3-IgG exchange reaction, assayed as reaction mix; also called bio fluos
B4: anti-bio/anti-PDGF bsAb (bio 2/3-IgG with E357K MHCFcRP x PDGF 2/3-IgG with K370E MHCFcRP) (bispecific antibody)
heavy 1: not shown
light 1: B3 light 1
heavy 2: EVQLVESGGGLVQPGGSLRLSCAASGFTFSSYWMSWVRQAPEKGLEWVSTISDGGGLTYYADSVKGRFTISRDNAKNSLYLQMNSLRAEDTAVYYCAESGGYTDWLFGYWGQGTLVTVSSASTKGPSVFPLAPSSKSTSGGTAALGCLVKDYFPEPVTVSWNSGALTSGVHTFPAVLQSSGLYSLSSVVTVPSSSLGTQTYICNVNHKPSNTKVDKKVEPKSC
light 2: not shown
notes: Product of the 2/3-IgG exchange reaction, assayed as reaction mix; also called bio PDGF; not shown: residue limits no
B5: anti-PDGF/anti-bio bsAb (PDGF 2/3-IgG with E357K MHCFcRP x bio 2/3-IgG with K370E MHCFcRP) (bispecific antibody)
heavy 1: B4 heavy 2
light 1: not shown
heavy 2: not shown
light 2: B3 light 1
notes: Product of the 2/3-IgG exchange reaction, assayed as reaction mix; also called PDGF bio; not shown: residue limits no
B6: anti-fluos/anti-bio bsAb (fluos 2/3-IgG with E357K MHCFcRP x bio 2/3-IgG with K370E MHCFcRP) (bispecific antibody)
heavy 1: not shown
light 1: B1 light 2
heavy 2: not shown
light 2: B3 light 1
notes: Product of the 2/3-IgG exchange reaction, assayed as reaction mix; also called fluos bio
B7: anti-dig/anti-bio bsAb (dig 2/3-IgG with E357K MHCFcRP x bio 2/3-IgG with K370E MHCFcRP) (bispecific antibody)
heavy 1: B1 heavy 1
light 1: not shown
heavy 2: not shown
light 2: B3 light 1
notes: Product of the 2/3-IgG exchange reaction, assayed as reaction mix; also called dig bio; not shown: residue limits no
B8: anti-bio/anti-dig bsAb (bio 2/3-IgG with E357K MHCFcRP x dig 2/3-IgG with K370E MHCFcRP) (bispecific antibody)
heavy 1: not shown
light 1: B3 light 1
heavy 2: B1 heavy 1
light 2: not shown
notes: Product of the 2/3-IgG exchange reaction, assayed as reaction mix; also called bio dig; not shown: residue limits no

One assay addresses T1, VEGF (UniProt P15692-9 27-147).
T1 construct: also called VEGF121
T1 sequence (looked up): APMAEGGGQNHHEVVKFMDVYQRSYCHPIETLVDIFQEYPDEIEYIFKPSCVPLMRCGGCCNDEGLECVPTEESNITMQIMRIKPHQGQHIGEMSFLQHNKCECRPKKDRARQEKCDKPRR
The assay is described as follows: bridging ELISA, VEGF capture, digoxygenin-Cy5 detection; background signal.
In the case of B1, the binding result is given as “no binding (tested: input molecule concentration 1.3 µM)”.
In the case of B2, the binding result is listed as “no binding (tested: input molecule concentration 1.3 µM)”.

The next assay deals with T1, VEGF. The assay is described as follows: bridging ELISA, VEGF capture, biocytinamid-Cy5 detection; background signal.
B3: the binding result is given as “no binding (tested: input molecule concentration 1.3 µM)”.
B4: the binding result is reported as “no binding (tested: input molecule concentration 1.3 µM)”.
On the same count and under the same terms, then B5, with “no binding (tested: input molecule concentration 1.3 µM)”; and B6, with “no binding (tested: input molecule concentration 1.3 µM)”.

For the next assay, the target named is T1, VEGF. The assay is described as follows: bridging ELISA, VEGF capture, biocytinamid-Cy5 or digoxygenin-Cy5 detection; background signal. A general note: An ELISA detects its analyte on a solid surface through an enzyme-linked reagent.
B7: the binding result is given as “no binding (tested: input molecule concentration 1.3 µM)”.
The same measure, in the same setting: then B8, with “no binding (tested: input molecule concentration 1.3 µM)”.

The target of the next assay is T1, VEGF. The assay can be described thus: bridging ELISA on exchange reaction mix; VEGF capture, digoxygenin-Cy5 detection; input 1.3 µM; highest value of the assay = 100%.
In turn, B1 returned a relative signal intensity of 6.7%.
As to B2, the relative signal intensity was 6.3%.
In turn, B7 registered a relative signal intensity of 6.2%.
B8 displayed a relative signal intensity of 6.2%.

The target in another assay is T1, VEGF. The assay can be described thus: bridging ELISA on exchange reaction mix; VEGF capture, biocytinamid-Cy5 detection; input 1.3 µM; highest value of the assay = 100%.
B3: the relative signal intensity is 9%.
B4 displayed a relative signal intensity of 10.1%.
Molecule B5 had a relative signal intensity of 10.5%.
As for B7, the relative signal intensity stood at 9%.
The molecule B8 returned a relative signal intensity of 9.3%.
Molecule B6 displayed a relative signal intensity of 10.2%.
